Tests used:
[1] = target: fluorescently-labeled NCP carrying H2AK13ub and H2AK15ub (NCP^ub) (human) (UniProt P0CG48); assay: fluorescence polarisation
[2] = target: fluorescently-labeled nucleosome core particle (NCP) (human); assay: fluorescence polarisation

Row | Substance | Kd [1] | Kd [2]
1 | RNF168 MIU2-LRM (aa 430–481) (from UniProt Q8IYW5 430-481) (domain or fragment) | 1400 nM | –
2 | RNF168 RING domain (RNF168^R, aa 1–94) (from UniProt Q8IYW5 1-94) (domain or fragment) | – | 400 nM
3 | full-length human RNF168 (RNF168^FL, aa 1–571) (from UniProt Q8IYW5 1-571) (natural protein) | 50 nM | 120 nM

— PMC10939898
